The target of the assay is T1, IL-15Rα constitutively expressed on Raji cells (UniProt Q13261 31-267, limits assumed).
T1 construct: whole, on cells; also called IL-15R-expressing Raji cells
Kind of assay: flow cytometry, IL-15Rα-expressing Raji cells without IL-15, biotinylated 146B7, streptavidin-PE; stimulation index.

T1 sequence (Q13261 31-267 limits assumed): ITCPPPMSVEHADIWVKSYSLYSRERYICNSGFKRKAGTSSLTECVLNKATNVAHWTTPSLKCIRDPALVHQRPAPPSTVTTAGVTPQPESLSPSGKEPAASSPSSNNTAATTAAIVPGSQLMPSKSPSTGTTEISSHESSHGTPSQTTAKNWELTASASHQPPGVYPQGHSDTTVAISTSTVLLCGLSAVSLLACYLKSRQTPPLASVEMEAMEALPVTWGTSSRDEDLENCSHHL
Method: Raji cells are pre-incubated (20 minutes at 4° C.) with 10% human pooled AB serum (CLB, Amsterdam, Netherlands)in FACS buffer (PBS, 0.05%BSA, 0.02% NaNO₃). Raji cells (1-2*10⁵ cells/ml) were put in the wells, and 50 μl of unlabeled IL-15 was added in several concentrations (diluted in FACS buffer with 10% human AB serum). […] After washing twice in FACS buffer, 50 μl of streptavidin-phycoerythrin was added to each well (30 minutes at 4° C.). After washing twice in FACS buffer, cells were taken up in 200 μl of FACS buffer, and fluorescence intensity of at least 5000 cells per sample was determined after analysis by flow cytometry (FACS Calibur, Becton Dickinson) using CellQuest software.

B1: human anti-IL-15 antibody 146B7 (antibody, human IgG1, V domains shown)
VH: EVQLVQSGAEVKKPGESLKISCKVSGYFFTTYWIGWVRQMPGKGLEYMGIIYPGDSDTRYSPSFQGQVTISADKSISTAYLQWSSLKASDTAMYYCARGGNWNCFDYWGQGTLVTVSS
VL: EIVLTQSPGTLSLSPGERATLSCRASQSVSSSYLAWYQQKPGQAPRLLIYGASRRATGIPDRFSGSGSGTDFTLTISRLEPEDFAVYYCQRYGSSHTFGQGTKLEISR
notes: also called MDX015
As for B1, the binding result is listed as “no binding (tested: 10000 (unit not printed on the sheet))”.

Values taken from US20040071702A1 (Genmab, published 2004).
